Source: PMC11322631
Several values for one entry are separate records, joined by “and”; a condition that tells them apart may be missing. Identical values can stand only once.

How the values were obtained:
[1] = target: green-light absorbing proteorhodopsin A18L variant with uncleavable N-terminal signal peptide (marine γ-proteobacteria); assay: cryo-EM structure; single particle cryo-EM of purified oligomers in 20 mM BTP-HCl pH 7.5, 150 mM NaCl, 0.25% Cymal-5; GPR-A18L at 4.2 mg/mL, PO at 4.0 mg/mL
[2] = target: green-light absorbing proteorhodopsin A18L variant with uncleavable N-terminal signal peptide (marine γ-proteobacteria); assay: native gel or EMSA; BN-PAGE, NativePAGE 4-16% Bis-Tris gel, about 5 µg protein, 0.4% Cymal-5 and 0.25% Coomassie G-250 in the sample, run in ice water
[3] = target: proteoopsin, retinal-free N-terminally truncated green-light absorbing proteorhodopsin lacking the signal peptide (marine γ-proteobacteria); assay: cryo-EM structure; single particle cryo-EM of purified oligomers in 20 mM BTP-HCl pH 7.5, 150 mM NaCl, 0.25% Cymal-5; GPR-A18L at 4.2 mg/mL, PO at 4.0 mg/mL

| Substance | stoichiometry N [1] | stoichiometry N [2] | stoichiometry N [3] |
| --- | --- | --- | --- |
| green-light absorbing proteorhodopsin A18L variant with uncleavable N-terminal signal peptide (natural protein) | 5 and 6 | 5 and 6 | – |
| proteoopsin, retinal-free N-terminally truncated green-light absorbing proteorhodopsin lacking the signal peptide (natural protein) | – | – | 5 |
